Experimental data published in paper PMC5678893.

Assays:
[1] = target: His-tagged cytoplasmic fragment (CF) of the E. coli aspartate chemoreceptor, 4Q (E. coli); experiment: co-sedimentation
[2] = target: all active complexes of the different constructs assembled with vesicles, PEG, or Ni(II); experiment: co-sedimentation

B1: CheW (natural protein)
chain: MTGMTNVTKLASEPSGQEFLVFTLGDEEYGIDILKVQEIRGYDQVTRIANTPAFIKGVTNLRGVIVPIVDLRIKFSQVDVDYNDNTVVIVLNLGQRVVGIVVDGVSDVLSLTAEQIRPAPEFAVTLSTEYLTGLGALGDRMLILVNIEKLLNSEEMALLDSAASEVA
percent bound [1]: < 15%
sedimentation relative to the optimal NiCl2 sample [1]: 50%
sedimented (bound) concentration, maximum at 4 h [1]: 13.6 µM
stoichiometry N (CheW per 6 CF) [2]: 2.1 to 3

B2: CheA (enzyme)
chain: MSMDISDFYQTFFDEADELLADMEQHLLVLQPEAPDAEQLNAIFRAAHSIKGGAGTFGFSVLQETTHLMENLLDEARRGEMQLNTDIINLFLETKDIMQEQLDAYKQSQEPDAASFDYICQALRQLALEAKGETPSAVTRLSVVAKSEPQDEQSRSQSPRRIILSRLKAGEVDLLEEELGHLTTLTDVVKGADSLSAILPGDIAEDDITAVLCFVIEADQITFETVEVSPKISTPPVLKLAAEQAPTGRVEREKTTRSNESTSIRVAVEKVDQLINLVGELVITQSMLAQRSSELDPVNHGDLITSMGQLQRNARDLQESVMSIRMMPMEYVFSRYPRLVRDLAGKLGKQVELTLVGSSTELDKSLIERIIDPLTHLVRNSLDHGIELPEKRLAAGKNSVGNLILSAEHQGGNICIEVTDDGAGLNRERILAKAASQGLTVSENMSDDEVAMLIFAPGFSTAEQVTDVSGRGVGMDVVKRNIQKMGGHVEIQSKQGTGTTIRILLPLTLAILDGMSVRVADEVFILPLNAVMESLQPREADLHPLAGGERVLEVRGEYLPIVELWKVFNVAGAKTEATQGIVVILQSGGRRYALLVDQLIGQHQVVVKNLESNYRKVPGISAATILGDGSVALIVDVSALQAINREQRMANTAA
percent bound [1]: < 15%
sedimentation relative to the optimal NiCl2 sample [1]: 50%
sedimented (bound) concentration, maximum at 4 h [1]: 5.8 µM
